In assay [1] the target is T1, human CLEC12A expressed on cells (human, UniProt Q5QGZ9 1-265).
T1 construct: whole, on cells; also called RMA-hCLEC12A; hCLEC12A+Ba/F3
T1 sequence (looked up): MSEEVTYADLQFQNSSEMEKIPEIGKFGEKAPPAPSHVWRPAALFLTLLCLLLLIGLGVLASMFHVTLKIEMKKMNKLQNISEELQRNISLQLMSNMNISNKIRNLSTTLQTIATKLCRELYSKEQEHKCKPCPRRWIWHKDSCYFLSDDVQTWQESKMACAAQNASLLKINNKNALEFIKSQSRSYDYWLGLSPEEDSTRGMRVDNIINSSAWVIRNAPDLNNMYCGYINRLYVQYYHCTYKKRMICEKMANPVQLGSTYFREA
Description: flow cytometry, PL21 cells. (In flow cytometry, cells or beads pass a laser one at a time.)

The next assay has as its target T2, De-glycosylated hCLEC12A (human, UniProt Q5QGZ9 65-265, limits assumed, N-glycans removed with PNGase).
T2 construct: Same protein as m1 after PNGase treatment; also called PNGase-treated hCLEC12A; deglycosylated version of hCLEC12A
T2 sequence (looked up): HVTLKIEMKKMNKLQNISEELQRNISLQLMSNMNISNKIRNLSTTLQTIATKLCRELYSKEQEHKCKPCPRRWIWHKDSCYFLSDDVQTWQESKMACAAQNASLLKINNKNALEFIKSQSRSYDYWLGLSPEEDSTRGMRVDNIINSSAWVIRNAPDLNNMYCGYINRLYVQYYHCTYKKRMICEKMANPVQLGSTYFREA
Kind of assay: SPR, analyte de-glycosylated hCLEC12A. (In general: Surface plasmon resonance follows binding to a sensor surface in real time, without labels.)

The target in assay [2] is T3, hCLEC12A-His fusion protein (human, UniProt Q5QGZ9 65-265, limits assumed).
T3 construct: Recombinant His-tagged human CLEC12A; also called Human CLEC12A-His; recombinant human CLEC12A
T3 sequence (looked up): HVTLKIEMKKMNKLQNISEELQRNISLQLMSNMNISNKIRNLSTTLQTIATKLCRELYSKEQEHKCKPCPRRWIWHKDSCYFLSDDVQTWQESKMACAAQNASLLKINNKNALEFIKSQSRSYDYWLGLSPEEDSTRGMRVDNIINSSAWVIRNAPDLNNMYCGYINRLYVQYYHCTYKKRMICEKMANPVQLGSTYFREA
Kind of assay: SPR screening, fully purified murine mAb.

The target of the next assay is T4, De-sialylated hCLEC12A (human, UniProt Q5QGZ9 65-265, limits assumed, glycans de-sialylated).
T4 construct: Same protein as m1 after removal of sialic acid; also called de-sialylated version of hCLEC12A
T4 sequence (looked up): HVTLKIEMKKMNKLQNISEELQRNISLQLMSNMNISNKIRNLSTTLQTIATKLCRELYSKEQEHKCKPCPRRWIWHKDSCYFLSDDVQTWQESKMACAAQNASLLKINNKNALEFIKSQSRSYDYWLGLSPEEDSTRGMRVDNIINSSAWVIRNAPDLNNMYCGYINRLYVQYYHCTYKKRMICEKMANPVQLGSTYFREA
Description: SPR, analyte de-sialylated hCLEC12A.

In a further assay the target is T5, cCLEC12A-His (cynomolgus monkey, UniProt A0A2K5WXQ4 71-271).
T5 construct: Recombinant His-tagged cynomolgus CLEC12A; also called Cyno CLEC12A-His; recombinant cyno CLEC12A
T5 sequence: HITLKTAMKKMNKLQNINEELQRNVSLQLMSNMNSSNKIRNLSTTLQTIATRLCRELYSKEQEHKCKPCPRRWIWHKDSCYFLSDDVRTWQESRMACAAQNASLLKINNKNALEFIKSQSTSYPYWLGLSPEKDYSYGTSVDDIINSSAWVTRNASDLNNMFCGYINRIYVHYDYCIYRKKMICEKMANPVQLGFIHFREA
Kind of assay: SPR, purified murine mAb, Cyno CLEC12A-His.

For assay [3], the target named is T3, hCLEC12A-His fusion protein. Description: SPR, analyte glycosylated hCLEC12A.
Assay [4] has the same target. Description: SPR, purified murine mAb.
Assay [5] shares this target. Kind of assay: yeast display, flow cytometry.
The target is the same in assay [6]. Description: yeast display flow cytometry with hCLEC12A-his (PE-A against FITC-A).
The target is the same in assay [7]. Kind of assay: SPR screening.

B1: Genentech-h6E7 (antibody, V domains shown)
VH: EVQLVQSGAEVKKPGASVKVSCKASGYSFTDYYMHWVRQAPGQGLEWIGRINPYNGAAFYSQNFKDRVTLTVDTSTSTAYLELSSLRSEDTAVYYCAIERGADLEGYAMDYWGQGTLVTVSS
VL: DIQMTQSPSSLSASVGDRVTITCRASQSVSTSSYNYMHWYQQKPGKPPKLLIKYASNLESGVPSRFSGSGSGTDFTLTISSLQPEDFATYYCQHSWEIPLTFGQGTKVEIK
Take B1: in [1], it took 5 nM to reach a half-maximal effect (EC50) and the “Max MFI” value worked out at 265 MFI.

B2: 16B8.C8 (antibody, V domains shown)
VH: EVQLQESGPGLVQPSQSLSITCTVSGFSLTNYGLHWVRQSPGKGLEWLGVIWSGGKTDYNTPFKSRLSISKDISKNQVFFKMNSLQPNDTAIYFCAKYDYDDSLDYWGQGTSVTVSS
VL: DIQMNQSPSSLSASLGDTIAITCHASQNINFWLSWYQQKPGNIPKLLIYEASNLHTGVPSRFSGSGSGTRFTLTISSLQPEDIATYYCQQSHSYPLTFGQGTKLEIK
notes: Murine mAb purified from the hybridoma subclone; also called Murine 16B8 mAb; Murine 16B8. mAb
As to B2, in assay [1], the EC50 (usually the concentration at which the effect is half-maximal) was determined as 0.18 nM. In addition, the “Max MFI” value in assay [1] was found to be 300 MFI. Moreover, the Kd (commonly the concentration at which binding is half-saturated) in the assay with De-glycosylated hCLEC12A was found to be 0.011 nM; in assay [2] it was 0.008 nM; with De-sialylated hCLEC12A it was 0.007 nM; in [3] it was 0.012 nM; in assay [4], 0.01 nM. In addition, the koff (in general, the rate constant with which the complex falls apart) with De-glycosylated hCLEC12A turned out to be 4.45e-05 s⁻¹; in [2] it was 2.35e-05 s⁻¹; with De-sialylated hCLEC12A it was 3.62e-05 s⁻¹; in assay [3], 4.7e-05 s⁻¹; in assay [4] it was 4.44e-05 s⁻¹. The on-rate constant (kon) (in general, a measure of how fast the partners come together) was found to be 4.26e+06 M⁻¹ s⁻¹ with De-glycosylated hCLEC12A; 3.03e+06 M⁻¹ s⁻¹ in assay [2]; 5.25e+06 M⁻¹ s⁻¹ with De-sialylated hCLEC12A; 4.05e+06 M⁻¹ s⁻¹ in assay [3]; 4.05e+06 M⁻¹ s⁻¹ in [4]. In addition, the binding result with cCLEC12A-His is “no binding”.

B3: scFv CDRH3 variant YDYDDALDY (SEQ ID NO:141), yeast display (scFv)
scFv: QLQLQESGPGLVKPSETLSLTCTVSGFSLTNYGLHWIRQPPGKCLEWIGVIWSGGKTDYNPSLKSRVTISKDTSKNQFSLKLSSVQAADTAVYYCAKYDYDDALDYWGQGTLVTVSSGGGGSGGGGSGGGGSGGGGSDIQMTQSPSSLSASVGDRVTITCHASQNINFWLSWYQQKPGKAPKLLIYEASNLHTGVPSRFSGSGSGTRFTLTISSLQPEDIATYYCQQSHSYPLTFGCGTKLEIK
For B3, the binding result in assay [5] is “binds”.

B4: scFv CDRH3 variant YDYDESLDY (SEQ ID NO:146), yeast display (scFv)
scFv: QLQLQESGPGLVKPSETLSLTCTVSGFSLTNYGLHWIRQPPGKCLEWIGVIWSGGKTDYNPSLKSRVTISKDTSKNQFSLKLSSVQAADTAVYYCAKYDYDESLDYWGQGTLVTVSSGGGGSGGGGSGGGGSGGGGSDIQMTQSPSSLSASVGDRVTITCHASQNINFWLSWYQQKPGKAPKLLIYEASNLHTGVPSRFSGSGSGTRFTLTISSLQPEDIATYYCQQSHSYPLTFGCGTKLEIK
notes: As m72
Regarding B4, the binding result in [6] is “no binding”.

B5: scFv CDRH3 variant YDYDDVLDY (SEQ ID NO:144), yeast display (scFv)
scFv: QLQLQESGPGLVKPSETLSLTCTVSGFSLTNYGLHWIRQPPGKCLEWIGVIWSGGKTDYNPSLKSRVTISKDTSKNQFSLKLSSVQAADTAVYYCAKYDYDDVLDYWGQGTLVTVSSGGGGSGGGGSGGGGSGGGGSDIQMTQSPSSLSASVGDRVTITCHASQNINFWLSWYQQKPGKAPKLLIYEASNLHTGVPSRFSGSGSGTRFTLTISSLQPEDIATYYCQQSHSYPLTFGCGTKLEIK
notes: As m72
Regarding B5, the binding result in [6] is on record as “no binding”.

B6: scFv CDRH3 variant YDYDDLLDY (SEQ ID NO:143), yeast display (scFv)
scFv: QLQLQESGPGLVKPSETLSLTCTVSGFSLTNYGLHWIRQPPGKCLEWIGVIWSGGKTDYNPSLKSRVTISKDTSKNQFSLKLSSVQAADTAVYYCAKYDYDDLLDYWGQGTLVTVSSGGGGSGGGGSGGGGSGGGGSDIQMTQSPSSLSASVGDRVTITCHASQNINFWLSWYQQKPGKAPKLLIYEASNLHTGVPSRFSGSGSGTRFTLTISSLQPEDIATYYCQQSHSYPLTFGCGTKLEIK
notes: As m72
B6: the binding result in [5] is reported as “binds”.

B7: scFv CDRH3 variant YDYDDILDY (SEQ ID NO:142), yeast display (scFv)
scFv: QLQLQESGPGLVKPSETLSLTCTVSGFSLTNYGLHWIRQPPGKCLEWIGVIWSGGKTDYNPSLKSRVTISKDTSKNQFSLKLSSVQAADTAVYYCAKYDYDDILDYWGQGTLVTVSSGGGGSGGGGSGGGGSGGGGSDIQMTQSPSSLSASVGDRVTITCHASQNINFWLSWYQQKPGKAPKLLIYEASNLHTGVPSRFSGSGSGTRFTLTISSLQPEDIATYYCQQSHSYPLTFGCGTKLEIK
notes: As m72
For the molecule B7, the binding result in assay [5] is recorded as “binds”.

B8: scFv CDRH3 variant YDYDDTLDY (SEQ ID NO:145), yeast display (scFv)
scFv: QLQLQESGPGLVKPSETLSLTCTVSGFSLTNYGLHWIRQPPGKCLEWIGVIWSGGKTDYNPSLKSRVTISKDTSKNQFSLKLSSVQAADTAVYYCAKYDYDDTLDYWGQGTLVTVSSGGGGSGGGGSGGGGSGGGGSDIQMTQSPSSLSASVGDRVTITCHASQNINFWLSWYQQKPGKAPKLLIYEASNLHTGVPSRFSGSGSGTRFTLTISSLQPEDIATYYCQQSHSYPLTFGCGTKLEIK
notes: As m72
As to B8, in assay [6], the binding result is “no binding”.

B9: 9E4.B7 (antibody, V domains shown)
VH: EVQLQESGAELMKPGASVKISCRTTGYTFSTYWIEWVKQRPGRGPEWIGELFPGNSDTTLNEKFTGKATFTADSSSNTAYMQLSSLTSEDSAVYYCARSGYYGSSLDYWGQGTTLTVSS
VL: GIVMTQSPASLSASVGETVTITCRAGENIHSYLAWYQQKQGKSPQLLVYNAKTLAEGVPSRFSGSGSGTQFSLKINSLQPEDFGSYYCQHHYGTPRTFGGGTKLEIK
notes: Murine mAb purified from the hybridoma subclone
As for B9, in [1], the response was half-maximal at 0.64 nM (EC50) and the “Max MFI” value worked out at 186 MFI. Further, in the assay with cCLEC12A-His, the binding result is given as “no binding”.

B10: Merus-CLL1 (antibody, V domains shown)
VH: EVQLVQSGAEVKKPGASVKVSCKASGYTFTSYYMHWVRQAPGQGLEWMGIINPSGGSTSYAQKFQGRVTMTRDTSTSTVYMELSSLRSEDTAVYYCARGNYGDEFDYWGQGTLVTVSS
VL: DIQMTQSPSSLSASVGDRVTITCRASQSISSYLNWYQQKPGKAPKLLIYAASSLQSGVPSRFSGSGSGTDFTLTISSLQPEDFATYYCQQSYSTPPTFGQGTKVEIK
In the case of B10, in [1], the 50% effective concentration (EC50) stood at 2.02 nM and the “Max MFI” value stood at 201 MFI.

B11: 9F11.B7 (antibody, V domains shown)
VH: EVQLQESGGGLVQPGGSRKLSCAASGFTFNSFGMHWVRQAPEKGLEWVAFISSGSTSIYYANTVKGRFTISRDNPKNTLFLQMTSLRSEDTAMYYCARDGYPTGGAMDYWGQGTSVTVSS
VL: DIKMTQSPSSMYASLGERVTITCKASQDIYNYLSWFQLKPGKSPRPLIYRANILVSGVPSKFSGSGSGQDYSLTINSLEYEDLGIYYCLQFDAFPFTFGSGTKLEIK
notes: as for B9
Take B11: in assay [1], the EC50 was determined as 0.56 nM and the “Max MFI” value worked out at 217 MFI. Further, in the assay with cCLEC12A-His, the binding result is “no binding”. In assay [4], the Kd was 1.4 nM, the koff was determined as 0.00157 s⁻¹ and the kon worked out at 1.14e+06 M⁻¹ s⁻¹.

B12: m9F11-hIgG1 (antibody, V domains shown)
VH: EVQLQESGGGLVQPGGSRKLSCAASGFTFNSFGMHWVRQAPEKGLEWVAFISSGSTSIYYANTVKGRFTISRDNPKNTLFLQMTSLRSEDTAMYYCARDGYPTGGAMDYWGQGTSVTVSS
VL: DIKMTQSPSSMYASLGERVTITCKASQDIYNYLSWFQLKPGKSPRPLIYRANILVSGVPSKFSGSGSGQDYSLTINSLEYEDLGIYYCLQFDAFPFTFGSGTKLEIK
notes: also called chimeric parent mouse 9F11.B7 mAb
In [7], B12 showed a Kd of 1.07 nM, a koff of 0.00102 s⁻¹ and an on-rate (kon) of 950000 M⁻¹ s⁻¹.

(Values after patent US20230220084A1 (DRAGONFLY THERAPEUTICS, published 2023).)
